From patent publication US20100221261

Columns and labels:
[1] = target: GST-XIAP linker BIR 2 [GST: P08515]
[2] = target: GST-linker BIR 2 BIR3Ring
Chain of GST-linker BIR 2 BIR3Ring (chain, as listed by the source): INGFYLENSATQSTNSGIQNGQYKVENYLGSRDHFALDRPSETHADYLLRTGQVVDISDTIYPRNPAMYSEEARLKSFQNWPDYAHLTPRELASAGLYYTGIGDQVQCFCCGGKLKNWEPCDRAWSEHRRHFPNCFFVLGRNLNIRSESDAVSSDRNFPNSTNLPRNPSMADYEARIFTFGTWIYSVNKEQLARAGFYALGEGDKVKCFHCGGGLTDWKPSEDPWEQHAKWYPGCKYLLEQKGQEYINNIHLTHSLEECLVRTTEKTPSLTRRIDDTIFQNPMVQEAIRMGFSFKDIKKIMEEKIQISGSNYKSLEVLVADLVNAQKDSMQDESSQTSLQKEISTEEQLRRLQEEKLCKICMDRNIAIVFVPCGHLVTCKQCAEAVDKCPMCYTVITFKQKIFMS

B1: Caspase-3 (protein)
chain: SGISLDNSYKMDYPEMGLCIIINNKNFHKSTGMTSRSGTDVDAANLRETFRNLKYEVRNKNDLTREEIVELMRDVSKEDHSKRSSFVCVLLSHGEEGIIFGTNGPVDLKKITNFFRGDRCRSLTGKPKLFIIQACRGTELDCGIETDSGVDDDMACHKIPVEADFLYAYSTAPGYYSWRNSKDGSWFIQSLCAMLKQYADKLEFMHILTRVNRKVATEFESFSFDATFHAKKQIPCIVSMLTKELYFYH
**Q.** What does the source list for B1?
**A.** Caspase 3 activity (hydrolysis of DEVD-AMC, released AMC fluorescence) [1]: caspase-3 was inhibited by GST fusion proteins of XIAP linker-Bir2, XIAP Linker Bir2-Bir3-RING or full-length XIAP; Caspase 3 activity (hydrolysis of DEVD-AMC, released AMC fluorescence) [2]: caspase-3 was inhibited by GST fusion proteins of XIAP linker-Bir2, XIAP Linker Bir2-Bir3-RING or full-length XIAP
